According to patent US20080044436A1, “Method for Screening and Compositions for Treating Cancers” (priority 2004, published 2008):

Target: T1, Sp1 (Homo sapiens, UniProt P08047)
T1 construct: made in house
Experiment: GST pull-down, TReP-132 and Sp1
Assay type: binding
Conditions: GST pull-down with 35S-Sp1, vs GST alone
Description: FIG. 13D: GST-TReP-132 proteins were incubated with ^35-[S]-Sp1 and immobilized on a glutathione-Sepharose column. Specific interactions were analyzed by comparison with the results obtained by incubating GST alone with ^35-[S]-Sp1. Sp1 input: 1/10th of radiolabelled Sp1 level used in the incubations.
In order to evaluate the interaction of TReP-132, Sp1, ER and PR, the wt and mutant GST-TReP-132 fusion proteins were expressed, then immobilized on glutathione-Sepharose as described (Frangioni and Neel, 1993; Monte et al., 1998). The ^35S-[Sp1], ^35S-[ER] and ^35S-[PR-B] proteins were synthesized in vitro using a rabbit reticulocyte lysate and T7 RNA polymerase system as directed by the manufacturer (Promega Corporation, Madison, Wis.). Proteins which bound, then detached from the Sepharose after being heated to boiling in SDS buffer were then separated on a 10% SDS-PAGE gel. The gels were stained with Coomassie blue, dried and autoradiographed.

T1 sequence (P08047 whole entry): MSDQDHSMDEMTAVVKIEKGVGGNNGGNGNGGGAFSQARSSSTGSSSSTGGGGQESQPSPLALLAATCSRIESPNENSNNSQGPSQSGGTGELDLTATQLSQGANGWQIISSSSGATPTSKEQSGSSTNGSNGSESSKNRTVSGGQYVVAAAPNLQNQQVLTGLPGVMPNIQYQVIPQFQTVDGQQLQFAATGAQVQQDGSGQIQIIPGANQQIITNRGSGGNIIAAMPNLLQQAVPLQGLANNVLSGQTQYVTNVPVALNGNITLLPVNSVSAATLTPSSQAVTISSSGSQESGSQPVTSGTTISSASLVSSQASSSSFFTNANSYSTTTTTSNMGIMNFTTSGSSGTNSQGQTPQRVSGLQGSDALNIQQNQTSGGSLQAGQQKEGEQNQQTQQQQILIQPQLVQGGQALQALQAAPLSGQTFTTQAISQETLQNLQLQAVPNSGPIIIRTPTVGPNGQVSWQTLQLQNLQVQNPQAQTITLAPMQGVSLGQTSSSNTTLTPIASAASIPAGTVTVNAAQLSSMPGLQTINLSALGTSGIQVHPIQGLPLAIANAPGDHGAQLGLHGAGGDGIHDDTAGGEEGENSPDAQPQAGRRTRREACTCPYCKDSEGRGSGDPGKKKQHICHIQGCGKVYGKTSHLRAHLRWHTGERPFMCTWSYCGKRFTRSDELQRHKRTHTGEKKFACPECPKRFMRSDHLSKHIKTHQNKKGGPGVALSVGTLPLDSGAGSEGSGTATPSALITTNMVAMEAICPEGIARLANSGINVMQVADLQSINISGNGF

interaction with Sp1: protein/protein itneraction was observed
B1: GST-TReP-132: in-frame fusion of the TReP-132 coding region downstream of GST in pGEX-2TK (protein)
chain: MGDQQLYKTNHVAHGSENLFYQQPPLGVHSGLNHNYGNAVTGGGMDAPQASPISPHFPQDTRDGLGLPVGSKNLGQMDTSRQGGWGSHAGPGNHVQLRGNLANSNMMWGAPAQAEPTDGYQYTYSQASEIRTQKLTSGVLHKLDSFTQVFANQNLRIQVNNMAQVLHTQSAVMDGAPDSALRQLLSQKPMEPPAPAIPSRYQQVPQQPHPGFTGGLSKPALQVGQHPTQGHLYYDYQQPLAQVPVQGGQPLQAPQMLSQHMQQMQQHQYYPPQQQQQAGQQRISMQEIQTQPQQIRPSQPQPPPQQQQPQQLQLQQRQGSMQIPQYYQPQPMMQHLQEQQQQQMHLQPPSYHRDPHQYTPEQAHTVQLIPLGSMSQYYYQEPQQPYSHPLYQQSHLSQHQQREDSQLKTYSSDRQAQAMLSSHGDLGPPDTGMGDPASSDLTRVSSTLPHRPLLSPSGIHLNNMGPQHQQLSPSAMWPQMHLPDGRAQPGSPESSGQPKGAFGEQFDAKNKLTCSICLKEFKNLPALNGHMRSHGGMRASPNLKQEEGEKVLPPQPQPPLPPPPPPPPPPQLPPEAESLTPMVMPVSVPVKLLPPKPSSQGFTNSTVAAPSARDKPASSMSDDEMPVLEIPRKHQPSVPKAEEPLKTVQEKKKFRHRPEPLFIPPPPSYNPNPAASYSGATLYQSQLRSPRVLGDHLLLDPTHELPPYTPPPMLSPVRQGSGLFSNVLISGHGPGAHPQLPLTPLTPTPRVLLCRSNSIDGSNVTVTPGPGEQTVDVEPRINIGLRFQAEIPELQDISALAQDTHKATLVWKPWPELENHDLQQRVENLLNLCCSSALPGGGTNSEFALHSLFEAKGDVMVALEMLLLRKPVRLKCHPLANYHYAGSDKWTSLERKLFNKALATYSKDFIFVQKMVKSKTVAQCVEYYYTWKKIMRLGRKHRTRLAEIIDDCVTSEEEEELEEEEEEDPEEDRKSTKEEESEVPKSPEPPPVPVLAPTEGPPLQALGQPSGSFICEMPNCGAVFSSRQALNGHARIHGGTNQVTKARGAIPSGKQKPGGTQSGYCSVKSSPSHSTTSGETDPTTIFPCKECGKVFFKIKSRNAHMKTHRQQEEQQRQKAQKAAFAAEMAATIERTTGPVGAPGLLPLDQLSLIKPIKDVDILDDDVVQQLGGVMEEAEVVDTDLLLDDQDSVLLQGDAEL
modifications: left off: a dimerising Fc or GST; large carriers; small tags and cut ends
notes: in-frame fusion of the TReP-132 coding region downstream of GST in pGEX-2TK
